{
  "source": "paper doi:10.1101/152850",
  "about": "(bioRxiv, 2017)",
  "binders": {"B1": {"name": "human IFIT1, wild-type, full-length (residues 1-478) (natural protein, UniProt P09914 1-478, looked up)", "chain": "MSTNGDDHQVKDSLEQLRCHFTWELSIDDDEMPDLENRVLDQIEFLDTKYSVGIHNLLAYVKHLKGQNEEALKSLKEAENLMQEEHDNQANVRSLVTWGNFAWMYYHMGRLAEAQTYLDKVENICKKLSNPFRYRMECPEIDCEEGWALLKCGGKNYERAKACFEKVLEVDPENPESSAGYAISAYRLDGFKLATKNHKPFSLLPLRQAVRLNPDNGYIKVLLALKLQDEGQEAEGEKYIEEALANMSSQTYVFRYAAKFYRRKGSVDKALELLKKALQETPTSVLLHHQIGLCYKAQMIQIKEATKGQPRGQNREKLDKMIRSAIFHFESAVEKKPTFEVAHLDLARMYIEAGNHRKAEENFQKLLCMKPVVEETMQDIHFHYGRFQEFQKKSDVNAIIHYLKAIKIEQASLTRDKSINSLKKLVLRKLRRKALDLESLSLLGFVYKLEGNMNEALEYYERALRLAADFENSVRQGP"}, "B2": {"name": "human IFIT1 K448E (natural protein, UniProt P09914 1-478, looked up)", "chain": "MSTNGDDHQVKDSLEQLRCHFTWELSIDDDEMPDLENRVLDQIEFLDTKYSVGIHNLLAYVKHLKGQNEEALKSLKEAENLMQEEHDNQANVRSLVTWGNFAWMYYHMGRLAEAQTYLDKVENICKKLSNPFRYRMECPEIDCEEGWALLKCGGKNYERAKACFEKVLEVDPENPESSAGYAISAYRLDGFKLATKNHKPFSLLPLRQAVRLNPDNGYIKVLLALKLQDEGQEAEGEKYIEEALANMSSQTYVFRYAAKFYRRKGSVDKALELLKKALQETPTSVLLHHQIGLCYKAQMIQIKEATKGQPRGQNREKLDKMIRSAIFHFESAVEKKPTFEVAHLDLARMYIEAGNHRKAEENFQKLLCMKPVVEETMQDIHFHYGRFQEFQKKSDVNAIIHYLKAIKIEQASLTRDKSINSLKKLVLRKLRRKALDLESLSLLGFVYELEGNMNEALEYYERALRLAADFENSVRQGP"}, "B3": {"name": "IFIT2 (natural protein, UniProt P09913 1-472, looked up)", "chain": "MSENNKNSLESSLRQLKCHFTWNLMEGENSLDDFEDKVFYRTEFQNREFKATMCNLLAYLKHLKGQNEAALECLRKAEELIQQEHADQAEIRSLVTWGNYAWVYYHMGRLSDVQIYVDKVKHVCEKFSSPYRIESPELDCEEGWTRLKCGGNQNERAKVCFEKALEKKPKNPEFTSGLAIASYRLDNWPPSQNAIDPLRQAIRLNPDNQYLKVLLALKLHKMREEGEEEGEGEKLVEEALEKAPGVTDVLRSAAKFYRRKDEPDKAIELLKKALEYIPNNAYLHCQIGCCYRAKVFQVMNLRENGMYGKRKLLELIGHAVAHLKKADEANDNLFRVCSILASLHALADQYEDAEYYFQKEFSKELTPVAKQLLHLRYGNFQLYQMKCEDKAIHHFIEGVKINQKSREKEKMKDKLQKIAKMRLSKNGADSEALHVLAFLQELNEKMQQADEDSERGLESGSLIPSASSWNGE"}, "B4": {"name": "IFIT5-IFIT1 chimera (IFIT5^i1TPR9): human IFIT5 α1-α21 (residues 1-435) and human IFIT1 α22-α23 (TPR9, residues 437-478) (other, UniProt Q13325 1-435, looked up)", "chain": "MSEIRKDTLKAILLELECHFTWNLLKEDIDLFEVEDTIGQQLEFLTTKSRLALYNLLAYVKHLKGQNKDALECLEQAEEIIQQEHSDKEEVRSLVTWGNYAWVYYHMDQLEEAQKYTGKIGNVCKKLSSPSNYKLECPETDCEKGWALLKFGGKYYQKAKAAFEKALEVEPDNPEFNIGYAITVYRLDDSDREGSVKSFSLGPLRKAVTLNPDNSYIKVFLALKLQDVHAEAEGEKYIEEILDQISSQPYVLRYAAKFYRRKNSWNKALELLKKALEVTPTSSFLHHQMGLCYRAQMIQIKKATHNRPKGKDKLKVDELISSAIFHFKAAMERDSMFAFAYTDLANMYAEGGQYSNAEDIFRKALRLENITDDHKHQIHYHYGRFQEFHRKSENTAIHHYLEALKVKDRSPLRTKLTSALKKLSTKRLCHNALDVLESLSLLGFVYKLEGNMNEALEYYERALRLAADFENSVRQGP"}},
  "key": {"SEC-MALS": {"molecular_target": "the molecule itself", "assay": "SEC-MALS"}, "SEC": {"molecular_target": "the molecule itself", "assay": "SEC"}, "IFIT1 wild-type [1]": {"molecular_target": "T1, IFIT1 wild-type (human, UniProt P09914 1-478)", "T1 sequence": "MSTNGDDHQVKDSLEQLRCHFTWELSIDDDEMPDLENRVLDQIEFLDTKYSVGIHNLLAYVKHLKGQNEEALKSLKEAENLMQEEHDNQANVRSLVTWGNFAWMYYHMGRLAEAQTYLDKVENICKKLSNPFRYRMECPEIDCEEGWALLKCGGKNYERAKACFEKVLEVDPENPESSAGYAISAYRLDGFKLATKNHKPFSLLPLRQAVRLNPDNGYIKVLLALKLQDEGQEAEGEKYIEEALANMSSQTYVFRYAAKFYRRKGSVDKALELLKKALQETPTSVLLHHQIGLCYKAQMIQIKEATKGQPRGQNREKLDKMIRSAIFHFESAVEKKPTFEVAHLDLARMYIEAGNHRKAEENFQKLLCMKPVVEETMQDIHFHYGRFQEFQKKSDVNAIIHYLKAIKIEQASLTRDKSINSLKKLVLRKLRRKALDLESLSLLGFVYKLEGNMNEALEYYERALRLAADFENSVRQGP", "assay": "X-ray crystallography"}, "IFIT1 wild-type [2]": {"molecular_target": "T1, IFIT1 wild-type", "assay": "X-ray crystallography", "remark": "listed apart in the source"}, "IFIT1 wild-type [3]": {"molecular_target": "T1, IFIT1 wild-type", "assay": "limited proteolysis"}},
  "data": [
    {"binder": "B1", "values": [
      {"measurement": "stoichiometry N", "setting": "SEC-MALS", "value": 2}
    ]},
    {"binder": "B2", "values": [
      {"measurement": "binding result", "setting": "SEC", "value": "binds"}
    ]},
    {"binder": "B3", "values": [
      {"measurement": "stoichiometry N", "setting": "SEC", "value": 2}
    ]},
    {"binder": "B4", "values": [
      {"measurement": "stoichiometry N", "setting": "SEC", "value": 2}
    ]},
    {"binder": "AAAA (ssRNA, 5' triphosphate)", "note": "[PPP-oligoA (PPP-AAAA)]", "values": [
      {"measurement": "binding result", "setting": "IFIT1 wild-type [1]", "value": "binds"}
    ]},
    {"binder": "AAAA (ssRNA, 5' m7Gppp cap (cap G not in strand))", "note": "[m7Gppp-oligoA (m7Gppp-AAAA)]", "values": [
      {"measurement": "binding result", "setting": "IFIT1 wild-type [2]", "value": "binds"}
    ]},
    {"binder": "AAAA (ssRNA, 5' Gppp cap (cap G not in strand))", "note": "[Gppp-oligoA (Gppp-AAAA)]", "values": [
      {"measurement": "binding result", "setting": "IFIT1 wild-type [3]", "value": "binds"}
    ]}
  ]
}
